Results: publication doi:10.1101/815886

How the values were obtained:
[1] = target: CST with CTC1 K743E/R744E (human, UniProt Q2NKJ3;Q9H668;Q86WV5 1-1217;1-368;1-123, K743E;R744E;CTC1:); experiment: EMSA
[2] = target: CST with CTC1 V967A/S979A/H980A (human, UniProt Q2NKJ3;Q9H668;Q86WV5 1-1217;1-368;1-123, V967A;S979A;H980A;CTC1:); experiment: EMSA
[3] = target: CST with CTC1 K1164E/K1167E (human, UniProt Q2NKJ3;Q9H668;Q86WV5 1-1217;1-368;1-123, K1164E;K1167E;CTC1:); experiment: EMSA
[4] = target: CST with CTC1 R1193E/R1195E (human, UniProt Q2NKJ3;Q9H668;Q86WV5 1-1217;1-368;1-123, R1193E;R1195E;CTC1:); experiment: EMSA
Sequence of CST with CTC1 R1193E/R1195E (Q2NKJ3 whole entry R1193E/R1195E, chain 1 of 3): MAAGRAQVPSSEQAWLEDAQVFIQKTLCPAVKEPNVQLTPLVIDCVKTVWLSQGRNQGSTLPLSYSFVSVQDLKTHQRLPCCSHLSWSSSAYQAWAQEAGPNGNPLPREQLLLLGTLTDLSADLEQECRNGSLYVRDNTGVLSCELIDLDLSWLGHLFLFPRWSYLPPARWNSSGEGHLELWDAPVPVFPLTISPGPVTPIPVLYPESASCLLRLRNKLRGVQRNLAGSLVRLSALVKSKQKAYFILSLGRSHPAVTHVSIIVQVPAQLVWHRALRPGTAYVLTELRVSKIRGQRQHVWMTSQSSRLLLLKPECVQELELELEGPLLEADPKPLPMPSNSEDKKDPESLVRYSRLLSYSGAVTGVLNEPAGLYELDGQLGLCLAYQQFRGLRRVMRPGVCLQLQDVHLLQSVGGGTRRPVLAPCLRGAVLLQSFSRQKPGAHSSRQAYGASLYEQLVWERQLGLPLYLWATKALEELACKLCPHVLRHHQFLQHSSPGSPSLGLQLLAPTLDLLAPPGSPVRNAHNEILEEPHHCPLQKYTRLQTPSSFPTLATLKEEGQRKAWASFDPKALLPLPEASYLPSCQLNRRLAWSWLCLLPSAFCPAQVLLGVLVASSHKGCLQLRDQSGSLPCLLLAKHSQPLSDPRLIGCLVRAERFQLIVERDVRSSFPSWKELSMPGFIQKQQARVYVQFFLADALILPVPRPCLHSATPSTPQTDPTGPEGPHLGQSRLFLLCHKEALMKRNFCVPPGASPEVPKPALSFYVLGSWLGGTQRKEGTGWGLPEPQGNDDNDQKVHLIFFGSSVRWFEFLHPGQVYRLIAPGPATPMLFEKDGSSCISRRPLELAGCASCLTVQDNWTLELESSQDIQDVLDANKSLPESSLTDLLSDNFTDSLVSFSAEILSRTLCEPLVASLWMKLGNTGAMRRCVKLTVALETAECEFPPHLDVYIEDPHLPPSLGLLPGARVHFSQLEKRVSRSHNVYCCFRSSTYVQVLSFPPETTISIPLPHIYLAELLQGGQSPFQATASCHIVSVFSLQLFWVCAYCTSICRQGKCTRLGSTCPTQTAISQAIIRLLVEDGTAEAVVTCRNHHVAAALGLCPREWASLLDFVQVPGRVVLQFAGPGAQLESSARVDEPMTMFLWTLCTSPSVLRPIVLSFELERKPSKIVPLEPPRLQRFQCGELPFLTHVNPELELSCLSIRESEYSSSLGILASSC
Sequence of CST with CTC1 R1193E/R1195E (Q9H668 whole entry, stated change not applied, chain 2 of 3): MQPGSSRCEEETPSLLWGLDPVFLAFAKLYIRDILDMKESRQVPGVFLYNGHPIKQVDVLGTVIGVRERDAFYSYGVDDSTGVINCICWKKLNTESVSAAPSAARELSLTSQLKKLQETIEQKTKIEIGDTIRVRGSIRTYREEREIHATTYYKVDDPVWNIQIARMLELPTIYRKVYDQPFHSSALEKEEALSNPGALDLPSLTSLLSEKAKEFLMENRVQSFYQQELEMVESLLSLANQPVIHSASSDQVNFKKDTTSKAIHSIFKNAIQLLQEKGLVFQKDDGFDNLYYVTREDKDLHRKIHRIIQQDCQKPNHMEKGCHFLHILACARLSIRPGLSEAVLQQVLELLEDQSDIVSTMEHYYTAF
Sequence of CST with CTC1 R1193E/R1195E (Q86WV5 whole entry, stated change not applied, chain 3 of 3): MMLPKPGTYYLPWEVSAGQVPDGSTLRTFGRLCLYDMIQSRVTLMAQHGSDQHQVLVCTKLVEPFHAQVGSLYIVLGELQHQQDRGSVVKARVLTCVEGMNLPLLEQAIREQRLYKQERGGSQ

[5] = target: CST wild type (CTC1-STN1-TEN1) (human, UniProt Q2NKJ3;Q9H668;Q86WV5 1-1217;1-368;1-123); experiment: cryo-EM
Sequence of CST wild type (CTC1-STN1-TEN1) (Q2NKJ3 whole entry, chain 1 of 3): as the sequence (Q2NKJ3 whole entry R1193E/R1195E, chain 1 of 3) above, with E1193R, E1195R counted along it
Sequence of CST wild type (CTC1-STN1-TEN1) (Q9H668 whole entry, chain 2 of 3): as the sequence (Q9H668 whole entry, stated change not applied, chain 2 of 3) above
Sequence of CST wild type (CTC1-STN1-TEN1) (Q86WV5 whole entry, chain 3 of 3): as the sequence (Q86WV5 whole entry, stated change not applied, chain 3 of 3) above

Sequence of CST with CTC1 K743E/R744E (Q2NKJ3 whole entry K743E/R744E, chain 1 of 3): as the sequence (Q2NKJ3 whole entry R1193E/R1195E, chain 1 of 3) above, with K743E, R744E, E1193R, E1195R counted along it
Sequence of CST with CTC1 K743E/R744E (Q9H668 whole entry, stated change not applied, chain 2 of 3): as the sequence (Q9H668 whole entry, stated change not applied, chain 2 of 3) above
Sequence of CST with CTC1 K743E/R744E (Q86WV5 whole entry, stated change not applied, chain 3 of 3): as the sequence (Q86WV5 whole entry, stated change not applied, chain 3 of 3) above
Sequence of CST with CTC1 K1164E/K1167E (Q2NKJ3 whole entry K1164E/K1167E, chain 1 of 3): as the sequence (Q2NKJ3 whole entry R1193E/R1195E, chain 1 of 3) above, with K1164E, K1167E, E1193R, E1195R counted along it
Sequence of CST with CTC1 K1164E/K1167E (Q9H668 whole entry, stated change not applied, chain 2 of 3): as the sequence (Q9H668 whole entry, stated change not applied, chain 2 of 3) above
Sequence of CST with CTC1 K1164E/K1167E (Q86WV5 whole entry, stated change not applied, chain 3 of 3): as the sequence (Q86WV5 whole entry, stated change not applied, chain 3 of 3) above
Sequence of CST with CTC1 V967A/S979A/H980A (Q2NKJ3 whole entry V967A/S979A/H980A, chain 1 of 3): as the sequence (Q2NKJ3 whole entry R1193E/R1195E, chain 1 of 3) above, with V967A, S979A, H980A, E1193R, E1195R counted along it
Sequence of CST with CTC1 V967A/S979A/H980A (Q9H668 whole entry, stated change not applied, chain 2 of 3): as the sequence (Q9H668 whole entry, stated change not applied, chain 2 of 3) above
Sequence of CST with CTC1 V967A/S979A/H980A (Q86WV5 whole entry, stated change not applied, chain 3 of 3): as the sequence (Q86WV5 whole entry, stated change not applied, chain 3 of 3) above

## TTAGGGTTAGGGTTAGGG (ssDNA) [3xTEL]
[1]
  binding result: binds
[2]
  binding result: no binding
[3]
  binding result: no binding
[4]
  binding result: no binding
[5]
  binding result: binds
